Assay results published in US6979460B1, “Vinyl ether lipids with cleavable hydrophlic headgroups” (Purdue Research Foundation, priority 1999, dated 2005).

Tests used:
[1] = DOPE:CVEP/calcein vesicles with DSPE-PEG3350-folate as targeting ligand
[2] = Acid-triggered calcein release from DOPE:vinyl ether lipid vesicles (calcein fluorescence dequenching assay); format: physicochemical
Experimental: DOPE and the labile PEG lipid were co-dissolved in chloroform that had been prefiltered through a 2.53 cm plug of anhydrous sodium carbonate to remove traces of acid and water from the solvent. This solution was evaporated under a gentle stream of N2 and further dried under vacuum (<200 μ, 4 h). Vesicles were formed by hydrating the lipid film in the presence of 50 mM calcein using five LN2 freeze-thaw-vortex cycles. This suspension was then extruded at 50° C. through two 100 nm track-etch polycarbonate membrane filters. Extraliposomal calcein was removed using a single pass through a 40 cm Sephadex G-50 gel column equilibrated with 150 mM NaCl. The fraction eluting at the void volume was collected and stored at 8° C. until use. Light-sensitive vesicles were prepared in the same manner, except that bacteriochlorophyll a (Bchl) was codissolved in the chloroform lipid solution. Other agents or mixtures of agents, such as therapeutic compounds or diagnostic agents, are substituted for calcein in the above protocol resulting in liposomal encapsulation of the substituted agent.
Vesicle release of the liposomes made in example 4 above, was monitored at 37° C. as a function of time using the calcein fluorescence dequenching assay. Acid-trigged release was initiated by dilution of the vesicles into an acidic buffer solution as described by Gerasimov et al. Light-triggered release was promoted by aerobic illumination (800 nm, 1 W) of a continuously stirred 1 cm quartz cuvette with a SDL 820 diode laser coupled to an optical fiber. The fiber was mounted perpendicular to the cuvette surface to produce a spot of ˜3 mm diameter. Both triggering methods were conducted either in the absence or presence of ten-fold excess of egg phosphatidylcholine (EPC) vesicles as a membrane “sink”.

| Substance | cellular calcein fluorescence pattern (cytoplasmic delivery) [1] | t50% release ([2]; 98:2 DOPE:DVEP vesicles, pH 4.5, in the absence of sink EPC) | calcein leakage ([2]; 98:2 DOPE:DVEP vesicles, pH 7.4, sink EPC present or not) | t50% release ([2]; 98:2 DOPE:lipid vesicles (identical loadings), pH 4.5, 37° C.) [min] |
| --- | --- | --- | --- | --- |
| 4-o-Cholesteryl-(3Z-buten-1-yl)-polyethylene [125] glycolate [CVEP] | punctuated fluorescence, followed by diffuse cytoplasmic fluorescence |  |  |  |
| rac-1,2-Dioleyl-3-(4′-hydroxy-1′-butenyl)-glyceryl polyethylene [125] glycolate [DVEP] |  | ≈ 3 h | lack of leakage | 23 |
